Positions of bridges follow the written chain, without caps; N, C: chain ends. No end group written: not given here.
Legend:
[1] = target: T1, PAM4 antigen (human pancreatic cancer mucin, CaPan1) (human); experiment: ELISA on target mucin antigen (FIG. 9)
T1 construct: Mucin preparation or cell extract from human pancreatic cancer (CaPan1 xenografts); coated on plates or captured by PAM4 in the immunoassays; also called CaPan1 Ag; CaPan1 antigens

[2] = target: T2, cyclic phage-displayed peptide ACPEWWGTTC (disulfide 2-10); experiment: screen of phage-displayed peptides (cyclic library) after panning against hPAM4
T2 construct: also called cyclic peptide
T2 peptide: ACPEWWGTTC

EC50 [1]: 1.31 nM
binding result [2]: binds
B1: humanized PAM4 antibody (hPAM4 IgG) (antibody, V domains shown)
VH: QVQLQQSGAEVKKPGASVKVSCEASGYTFPSYVLHWVKQAPGQGLEWIGYINPYNDGTQYNEKFKGKATLTRDTSINTAYMELSRLRSDDTAVYYCARGFGGSYGFAYWGQGTLVTVSS
VL: DIQLTQSPSSLSASVGDRVTMTCSASSSVSSSYLYWYQQKPGKAPKLWIYSTSNLASGVPARFSGSGSGTDFTLTISSLQPEDSASYFCHQWNRYPYTFGGGTRLEIKR
